This is an account of results in the DeepSol protein solubility set.

This data set in a line: soluble on expression in E. coli; label from the status in PepcDB or PDB records.
For the sequence “FTEYGAEYKIEVGILKDVVTLTLDTSGEGLHKRGYRENSGGAPIKETLAAAMVLLSDWNPDIELADPMCGSGTIAIEAALIGKNIAPGLKRRFVSEEWDIIPKDLWSDLRKHARNSINDKEFNILCSDIDGWVIKTARANAKKAGVDKYISFQKLPMQDFSSKRKGGFIITNPPYGERLGEVKEVEKLYKDMGRVFKALDKWSYFIITAHEKFEDCFGRKSNKNRKLYNGKLKCYYYQYFGDRK”, the “soluble on expression in E. coli” value is “not soluble”.
The same measure for “FTSPAVKRLLGWKQGDEEEKWAEKAVDALVKKLKKKKGAMEELEKALSCPGQPSNCVTIPRSLDGRLQVSHRKGLPHVIYCRVWRWPDLQSHHELKPLECCEFPFGSKQKEVCINPYHYKRVES”: “soluble”; for “FVKSGWLLRQSTILKRWKKNWFDLWSDGHLIYYDDQTRQSIEDKVHMPVDCINIRTGHECRDIQPPDGKPRDCLLQIVCRDGKTISLCAESTDDCLAWKFTLQDSRT”: “soluble”; for “GAEPVDEEAPLLMKNQKDFSSYLMGRQSIYKRHIIEDFVRKMLPGISEHKAASINNAVYSNFVREYKMLVKPEVSKKNYSRDVPFPDIELSLLPGAKEILEKSRNANSRVILISNRGHGDLENEINHLGMMHYFDVVSGAEEVTLEKSHLPPSQMPEDLQKRLINSLNGSDEEALRATLSEAAIYAHPDSTTIERIDKKPDSTRLAESLERLSVQPNVPITSYGDQPSDIKQLKSVAEPKSRVLKGVIVNAQRDDVGREIDVDGVPTRVVSKITEL”: “not soluble”.
“GAMAQKNEDECAVCRDGGELICCDGCPRAFHLACLSPPLREIPSGTWRCSSCLQATVQEVQPRAEE”: the “soluble on expression in E. coli” value was “soluble”.
The same measure for “GAMAQVPTDPGYFSVLLDVKHFSPEEISVKVVGDHVEVHARHEERPDEHGFIAREFHRRYRLPPGVDPAAVTSALSPEGVLSIQATPASAQASLPSPPAAK”: “soluble”.
For the sequence “GAMGSGIPMEACPHIRYAFQNDKLLLQQASVGRLTLVNKTTILLRPMKTTTVDLGLYARPPEGHGLMLWGSTSRPVTSHVGIIDPGYTGELRLILQNQRRYNSTLRPSELKIHLAAFRYATPQMEEDKGPINHPQYPGNVGLDVSLPKDLALFPHQTVSVTLTVPPPSIPHHRPTIFGRSGLAMQGILVKPCRWRRGGVDVSLTNFSDQTVFLNKYRRFCQLVYLHKHHLTSFYSPHSDAGVLGPRSLFRWASCTFEEVPSLAMGDSGLSEALEGRQGRGFGSSGQ”, the “soluble on expression in E. coli” value is reported as “soluble”.
In the case of “GAVDLNDDVLDMGTGLRMQLYQCGDPRGRPVLYLHGMLDGMAPLEYLKHDFARRGLRVLAPVRPGYGLSEPVAGVEPGLRAMASHAVELIDRFALDRVAILGHMAGAVTGYVLRAGGDPRLAGMVAVAASGPLLRRAQLSGMARRQRMMAMTARWTPALLPFFVRAGIALIDSEEVGRFMDALYPPGSHERQVVDRLELAALMHAGYRFAAQSGTAGFEADALTMVSPWQRLSDGGTCPVVHLHGALDPVVPAAETARFAASISGASFRRFEDVGQFLIYERPDAVLDAIEAMLPPR”, the “soluble on expression in E. coli” value was “not soluble”.
With “GEIEFIESSKDAGFPVINTPSKTKLEPSVFHQVFEGNKEPAVLRSGDPRLKANFEEAIFSKYIGNVNTHVDEYMLEAVDHYAGQLATLDISTEPMKLEDAVYGTEGLEALDLTTSAGYPYVALGIKKRDILSKKTKDLTKLKECMDKYGLNLPMVTYVKDELRSIEKVAKGKSRLIEASSLNDSVAMRQTFGNLYKTFHLNPGVVTGSAVGCDPDLFWSKIPVMLDGHLIAFDYSGYDASLSPVWFACLKMLLEKLGYTHKETNYIDYLCNSHHLYRDKHYFVRGGMPSGCSGTSIFNSMINNIIIRTLMLKVYKGIDLDQFRMIAYGDDVIASYPWPIDASLLAEAGKGYGLIMTPADKGECFNEVTWTNATFLKRYFRADEQYPFLVHPVMPMKDIHESIRWTKDPKNTQDHVRSLCLLAWHNGEHEYEEFIRKIRSVPVGRCLTLPAFSTLRRKWLDSFHHHHHH”, the “soluble on expression in E. coli” value is given as “soluble”.
On to “GEPVEFQPKYRDLMLVVDLSGSMQKEDMNLDGEYIDRLSAVKKVLSDFVAKRKGDRLGVVLFGDHAYLQTPLTADRQTVIQQIKQTVIGLVGQRTAIGDGIGLGTKTFVDSDAPQRVMILLSDGSNTAGVLDPIEAAEIAKK”, for which the “soluble on expression in E. coli” value was “not soluble”.
In the case of “GEVRNIVDKTASFVARNGPEFEARIRQNEINNPKFNFLNPNDPYHAYYRHKVSEFKEGKAQEPS”, the “soluble on expression in E. coli” value is reported as “soluble”.
Take “GFVKEPFFTRLIDLESPFEEEFDKNVRYEIKRAQKESLLFSWGEGVPRFVKFFNAFAQSKGLSLLNEAELSYMGEHLRLTEIRANGEPLVMHSYLLDHSIKRVRLLHSASLFRLSQEKDFRALVGRANRLLHFLDMERFKEEGFKIYDFGGVSHSQDPALLGINRFKEGFGGRE”: the “soluble on expression in E. coli” value was “not soluble”.
Turning to “GGDFREYRDLMDTQVVLGFEGRPYHARDFYAAQILSIILGGGMSSRLFQEVREKRGLCYSIYAFHWGFSDIGLFGLHAATGQEKLKELLPVILDELSKVSKNIHTNELQRARAQYRATLTMAQENPSSQANFIARQILLYGREIPLSETIERLELITPARLTDLAGRLFINATPTLAAVGPVGSLMNFDNLTSTL”, the “soluble on expression in E. coli” value is given as “not soluble”.
Regarding “GGGGGGMGSPYEYQPEVKWYHVLWDMRNKQFRQWYLKKKYRDMRIAYKYESHILYQKAGMGFLMAAVFMSIFSSDLAVAVFRWPTEDPNELLKSQVWQKYHNQLNERKEYADKLLQDSNYIHRKNNPGE”, the “soluble on expression in E. coli” value is recorded as “soluble”.
With GGSGRPEIWIAQELRRIGDEFNAYYARRV, the “soluble on expression in E. coli” value is on record as “soluble”.
Regarding “GHMAESQALSDDIGFLLSRVGGMVLGAVNKALVPTGLRVRSYSVLVLACEQAEGVNQRGVAATMGLDPSQIVGLVDELEERGLVVRTLDPSDRRNKLIAATEEGRRLRDDAKARVDAAHGRYFEGIPDTVVNQMRDTLQSIAFPTFVEGS”, the “soluble on expression in E. coli” value is recorded as “soluble”.
The same measure for “GHMDQSDFSPYIEIDLPSESRIQSLHKSGLAAQEWVACEKVHGTNFGIYLINQGDHEVVRFAKRSGIMDPNENFFGYHILIDEFTAQIRILNDLLKQKYGLSRVGRLVLNGELFGAKYKHPLVPKSEKWCTLPNGKKFPIAGVQIQREPFPQYSPELHFFAFDIKYSVSGAEEDFVLLGYDEFVEFSSKVPNLLYARALVRGTLDECLAFDVENFMTPLPALLGLGNYPLEGNLAEGVVIRHVRRGDPAVEKHNVSTIIKLRCSSFMELKHPGKQKE”: “soluble”; for “GHMHTPFIVALDFPSKQEVERFLRPFAGTPLFVKVGMELYYQEGPAIVAFLKEQGHAVFLDLKLHDIPNTVKQAMKGLARVGADLVNVHAAGGRRMMEAAIEGLDAGTPSGRMRPRCIAVTQLTSTDERMLHEELWISRPLVETVAHYAALAKESGLDGVVCSANEAAFIKERCGASFLAVTPGIRFADDAAHDQVRVVTPRKARALGSDYIVIGRSLTRAADPLRTYARLQHEWNGGERESTTPT”: “soluble”; for “GHMIKGEQKRYSEMTKEELQQEIAMLTEKARKAEQMGMVNEYAVYERKIAMAKAYMLNPADFHPGEIYEIEGAPGEYFKVRYLKGVFAWGWRLKGNGEEEALPISLLRKPNLPQS”: “soluble”.
Turning to “GIDPFTAPGQLECETAIAALNSCLRDLDQASLAAVSQQLAPREGISQEALHTQMLTAVQEISHLIEPLASAARAEASQLGHKVSQMAQYFEPLTLAAVGAASKTLSHPQQMALLDQTKTLAESALQLLYTAKEAGGNPKQAAHTQEALEEAVQMMTEAVEDLTTTLNEAASAAG”, the “soluble on expression in E. coli” value is “soluble”.
On to “GKDDDNVETGAFDPSKPVAISDFTPKEGGAYQKLLIYGENFGTDVSKVKVKIGGKDAIVINVKSTYVYCFVPSGAFSGEIEITVGEGENAVTTTASTTFSYEKKMVVGTLCGYRNNRDDQGWRDGPFDGPEGVKCCGFSDNGRLAFDPLNKDHLYICYDGHKAIQLIDLKNRMLSSPLNINTIPTNRIRSIAFNKKIEGYADEAEYMIVAIDYDGKGDESPSVYIIKRNADGTFDDRSDIQLIAAYKQCNGATIHPINGELYFNSYEKGQVFRLDLVDYFKTIKNGGSWDPIVKNNPNTFKQLFTIADPSWEFQIFIHPTGKYAYFGVINNHYFMRSDYDEIKKEFITPYNFVGGYKQSGYRDDVGTEARMNNPCQGVFVKNPDYTGEEEYDFYFVDRLNFCVRKVTPEGIVSTYAGRGASTSLADGNQWGTDDGDLREVARFRDVSGLVYDDVKEMFYVHDQVGHTIRTISMEQEENVAGDENIPEDESTVESNE”, for which the “soluble on expression in E. coli” value is recorded as “soluble”.
On to “GKPKTDTDFQTYNGDGFKLQIPSKWNPNKEVEYPGQVLRFEDNFDATSNVIVAITPTDKKSITDFGSPEQFLSQVDYLLGRQAYSGKTDSEGGFESDAVAIANVLETSTAEVGGKQYYYLSILTRTADGNEGGKHQLVTATVNDGKLYICKAQAGDKRWFKGAKKFVENTATSFSLA”, for which the “soluble on expression in E. coli” value is reported as “soluble”.
On to “GKSASGEKEGNENAEEEAAAIEEARREAEERRKEKHRKMEEEREEMRQTIRDKYGLKKKVKEEPEAEADLDEGRVGRKK”, for which the “soluble on expression in E. coli” value is on record as “soluble”.
For the sequence “GLEVTVWNRSAAACEPLVALGAARAEEVGELFGLDVVISMLADDQAIRGVLLDSGALERARPGLIHLSMSTLSLDCVEALDQAHQRQGLAFVAAPVFGRTDVAEAGKLNIVVGGPEEAIEQVKALLEIMGQKTWFFGKDPRGAMAVKISGNFMIASAIESMGESVALVKRLGVEPGRFMELMSSTLFDAPVYRNYGPQIVEQRFTPARFRLVLGLKDVDLALSAGKRHNVPLPLASLLHDVLLEAIAHGDGESDWTALAKVALSRSGQI”, the “soluble on expression in E. coli” value was “not soluble”.
As for “GLFDKLKSLVSDDKKDTGTIEIIAPLSGEIVNIEDVPDVVFAEKIVGDGIAIKPTGNKMVAPVDGTIGKIFETNHAFSIESDSGVELFVHFGIDTVELKGEGFKRIAEEGQRVKVGDTVIEFDLPLLEEKAKSTLTPVVISNMDEIKELIKLSGSVTVGETPVIRIKK”, the “soluble on expression in E. coli” value is reported as “soluble”.
For “GLVNAHTHLEMTPLIGAFSELELTEMLGSGTALFNRLGNGEFEYLVEAGVELAALNFLLGGVTTVNSMDARPAAGAEAFGEAGLRGFFGPAISDLFWDQPVDQQFSRAREFVETYHDTYDGRIRATICPHDDWSCTRQLWERTASLAAEYPDLLVHTHLLELEESNTMARANGGEDSVGLLDDVGLLDDRLVAAHFRLGDEEDIQRTAEADAAVAHCPSVFCYWNPDGETQWTPVPELRAAGVDVGVGIDDHYWHDSYSMFGEARQARLAANLKRSAGQFDSMELIRMLTIEGARALGMGDE”, the “soluble on expression in E. coli” value was “not soluble”.
Regarding “GMAEYEDRYWTSSDGLRLHFRAYEGDISRPPVLCLPGLTRNARDFEDLATRLAGDWRVLCPEMRGRGDSDYAKDPMTYQPMQYLQDLEALLAQEGIERFVAIGTSLGGLLTMLLAAANPARIAAAVLNDVGPEVSPEGLERIRGYVGQGRNFETWMHAARALQESSGDVYPDWDITQWLRYAKRIMVLGSSGRIAFDYDMKIAEPFEAPVGATPQVDMWPLFDALATRPLLVLRGETSDILSAQTAAKMASRPGVELVTLPRIGHAPTLDEPESIAAIGRLLERV”, the “soluble on expression in E. coli” value is on record as “soluble”.
On to “GMALQEEFIDVNGTRVFQRKMVTDSNRRSIALFHGYSFTSMDWDKADLFNNYSKIGYNVYAPDYPGFGRSASSEKYGIDRGDLKHAAEFIRDYLKANGVARSVIMGASMGGGMVIMTTLQYPDIVDGIIAVAPAWVESLKGDMKKIRQKTLLVWGSKDHVVPIALSKEYASIISGSRLEIVEGSGHPVYIEKPEEFVRITVDFLRNL”, for which the “soluble on expression in E. coli” value was “soluble”.
